In assay [1] the target is T1, human calcitonin receptor (human, UniProt P30988 25-474).
T1 sequence (looked up): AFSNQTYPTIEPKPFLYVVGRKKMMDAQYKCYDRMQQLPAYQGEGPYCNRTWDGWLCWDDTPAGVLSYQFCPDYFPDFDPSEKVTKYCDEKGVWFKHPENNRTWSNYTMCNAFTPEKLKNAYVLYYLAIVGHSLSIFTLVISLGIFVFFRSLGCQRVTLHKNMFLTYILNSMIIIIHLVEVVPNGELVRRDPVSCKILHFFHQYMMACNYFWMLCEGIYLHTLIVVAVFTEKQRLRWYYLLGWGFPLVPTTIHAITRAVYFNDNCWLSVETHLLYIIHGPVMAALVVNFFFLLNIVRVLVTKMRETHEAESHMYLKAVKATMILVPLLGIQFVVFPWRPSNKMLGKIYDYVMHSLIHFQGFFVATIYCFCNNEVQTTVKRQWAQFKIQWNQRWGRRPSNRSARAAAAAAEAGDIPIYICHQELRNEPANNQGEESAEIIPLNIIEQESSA
The experiment in a line: cell-based or functional assay.

The target in assay [2] is T2, human amylin receptor (calcitonin receptor co-expressed with receptor activity modifying protein, RAMP3) (human, UniProt P30988 25-474; O60896 24-148).
T2 sequence (looked up) 1: T1 sequence (looked up)
T2 sequence (looked up) 2: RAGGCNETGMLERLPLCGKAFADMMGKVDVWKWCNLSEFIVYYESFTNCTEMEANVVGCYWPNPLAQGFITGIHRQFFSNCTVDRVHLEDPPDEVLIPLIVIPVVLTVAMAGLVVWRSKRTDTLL
The experiment in a line: cell-based or functional assay.

Numbered stars: 1 amine (or outer) side, 2 acyl side, 3 side chain; on linkers, the order of the positions; unused ones are H or OH. Bridge positions count the residues as written; N and C are the ends. Square brackets hold non-standard residues; d marks the D form. Side chains are listed from the residue outwards. Ends that are not written are not given here. * marks the point of attachment. C18 diacid = O=C(O)CCCCCCCCCCCCCCCCC(=O)*; γGlu = O=C(O)[C@H](CCC(=O)[*:2])N[*:1]; Aib = CC(C)(N)C(=O)O

The text below walks through data of US20220204580A1 (AstraZeneca / MedImmune, published 2022).

B1: Peptide 77 (SEQ ID NO: 77) (peptide)
peptide: K([γGlu-γGlu-C18 diacid])CNTATCATQRLANFLRHSS[Aib]NFGPILPPTRVGSNTY-NH2
modifications: disulfide 2-7; N-terminus assumed
SMILES: CC[C@H](C)[C@H](NC(=O)[C@@H]1CCCN1C(=O)CNC(=O)[C@H](Cc1ccccc1)NC(=O)[C@H](CC(N)=O)NC(=O)C(C)(C)NC(=O)[C@H](CO)NC(=O)[C@H](CO)NC(=O)[C@H](Cc1c[nH]cn1)NC(=O)[C@H](CCCNC(=N)N)NC(=O)[C@H](CC(C)C)NC(=O)[C@H](Cc1ccccc1)NC(=O)[C@H](CC(N)=O)NC(=O)[C@H](C)NC(=O)[C@H](CC(C)C)NC(=O)[C@H](CCCNC(=N)N)NC(=O)[C@H](CCC(N)=O)NC(=O)[C@@H](NC(=O)[C@H](C)NC(=O)[C@@H]1CSSC[C@H](NC(=O)[C@@H](N)CCCCNC(=O)CC[C@H](NC(=O)CC[C@H](NC(=O)CCCCCCCCCCCCCCCCC(=O)O)C(=O)O)C(=O)O)C(=O)N[C@@H](CC(N)=O)C(=O)N[C@@H]([C@@H](C)O)C(=O)N[C@@H](C)C(=O)N[C@@H]([C@@H](C)O)C(=O)N1)[C@@H](C)O)C(=O)N[C@@H](CC(C)C)C(=O)N1CCC[C@H]1C(=O)N1CCC[C@H]1C(=O)N[C@H](C(=O)N[C@@H](CCCNC(=N)N)C(=O)N[C@H](C(=O)NCC(=O)N[C@@H](CO)C(=O)N[C@@H](CC(N)=O)C(=O)N[C@H](C(=O)N[C@@H](Cc1ccc(O)cc1)C(N)=O)[C@@H](C)O)C(C)C)[C@@H](C)O
Take B1: the “EC50 (cAMP production)” value in assay [1] was 2.52 nM. Besides, in assay [2], the “EC50 (cAMP production)” value turned out to be 0.231 nM and the “Ratio (EC50 hCTR / EC50 hAMYR3)” value is 11.

B2: Peptide 76 (SEQ ID NO: 76) (peptide)
peptide: K([γGlu-C18 diacid])CNTATCATQRLANFLRHSS[Aib]NFGPILPPTRVGSNTY-NH2
modifications: disulfide 2-7; N-terminus assumed
SMILES: CC[C@H](C)[C@H](NC(=O)[C@@H]1CCCN1C(=O)CNC(=O)[C@H](Cc1ccccc1)NC(=O)[C@H](CC(N)=O)NC(=O)C(C)(C)NC(=O)[C@H](CO)NC(=O)[C@H](CO)NC(=O)[C@H](Cc1c[nH]cn1)NC(=O)[C@H](CCCNC(=N)N)NC(=O)[C@H](CC(C)C)NC(=O)[C@H](Cc1ccccc1)NC(=O)[C@H](CC(N)=O)NC(=O)[C@H](C)NC(=O)[C@H](CC(C)C)NC(=O)[C@H](CCCNC(=N)N)NC(=O)[C@H](CCC(N)=O)NC(=O)[C@@H](NC(=O)[C@H](C)NC(=O)[C@@H]1CSSC[C@H](NC(=O)[C@@H](N)CCCCNC(=O)CC[C@H](NC(=O)CCCCCCCCCCCCCCCCC(=O)O)C(=O)O)C(=O)N[C@@H](CC(N)=O)C(=O)N[C@@H]([C@@H](C)O)C(=O)N[C@@H](C)C(=O)N[C@@H]([C@@H](C)O)C(=O)N1)[C@@H](C)O)C(=O)N[C@@H](CC(C)C)C(=O)N1CCC[C@H]1C(=O)N1CCC[C@H]1C(=O)N[C@H](C(=O)N[C@@H](CCCNC(=N)N)C(=O)N[C@H](C(=O)NCC(=O)N[C@@H](CO)C(=O)N[C@@H](CC(N)=O)C(=O)N[C@H](C(=O)N[C@@H](Cc1ccc(O)cc1)C(N)=O)[C@@H](C)O)C(C)C)[C@@H](C)O
In the case of B2, the “EC50 (cAMP production)” value in assay [1] came to 22.3 nM. In assay [2], the “EC50 (cAMP production)” value worked out at 0.209 nM and the “Ratio (EC50 hCTR / EC50 hAMYR3)” value amounted to 107.
